One data set concerns the target T1, ADAM10 (Mus musculus, UniProt O35598, DEL741-741).
T1 construct: expressed in transfected cells; host or cells: AH109 yeast strain
T1 sequence (O35598 with tags, fused parts or gaps DEL741-741): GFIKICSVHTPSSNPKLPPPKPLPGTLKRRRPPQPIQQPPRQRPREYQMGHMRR
The experiment in a line: yeast two hybrid interaction of Grasp55 constructs with ADAM10 C-terminal sequence. The data set is classed as binding, murine. The arrangement: key: Symbols “+++” and “−” indicates the growth of yeast on selective media as shown in the FIGURE 13; Symbols “+++” and “−” indicates the growth of yeast on selective media as shown in the FIGURE 13. The text has this: (§1) The different GRASP55 constructs were cloned into pGBT9 GW vector (Ga14 DNA-binding domain fusion vector, Trp) as well in the pACT2 GW vector (Gal4 DNA-activation domain fusion vector, Leu) using the Gateway technology (Invitrogen). Plasmids were then co-transformed in AH109 yeast strain (/MATa, trp1-901, leu2-3, 112, ura3-52, his3-200, gal4/A, /gal80/A, /LYS2::GAL1//UAS//-GAL1//TATA//-HIS3, GAL2//UAS//-GAL2//TATA//-ADE2, URA3::MEL1//UAS//-MEL1//TATA//-lacZ, MEL1/) in accordance with the previously described transformation protocol (Chien et al. 1991. Proc Natl Acad Sci USA. 88:9578-82). Following co-transformation with the two vectors containing the different constructs (as well as the empty vector to test self activation), yeasts were plated onto Synthetic Complete (SC) medium minus Leucine (−L), minus Tryptophan (−W), minus Histidine (−H) and incubated at 30° C. for 4 to 5 days. All yeast media were prepared as previously described.
(§2) In examples 2, the inventors have previously shown that interaction between Grasp55 and C-terminal part of JAM-C requires the peptidic sequence between residues 1 to 160 of Grasp55 (PDZI+II) but cannot occur with residues 1 to 79 of Grasp55 (PDZI) by yeast two hybrid and ELISA assay (FIGS. 2 and 8). In the present example, the interaction sites between JAMs or metalloproteinases involved in JAM regulation and Grasp55 have been mapped using new constructs. To this end, yeast two-hybrid and GST fusion proteins encompassing residues 1 to 107, 108 to 208, and 1 to 208 corresponding respectively to the PDZI′, PDZII′ and PDZI′+II′ constructs have been generated. The former PDZII construct (residues 80 to 160) have also been used to test interaction with the C-terminal sequences of ADAM 10 (of sequence SEQ ID NO: 41) and ADAM 17 (of sequence SEQ ID NO: 42) known to regulate JAM-A and JAM-C release (Table 1). GST fusion proteins were produced and yeast two-hybrid assay was performed as previously described in example 1.

Another data set deals with T2, JAM-C (Mus musculus, UniProt Q9D8B7).
T2 construct: amino-acids 263 to 310 of murine JAM-C; expressed in transfected cells; host or cells: AH109 yeast strain
T2 sequence (Q9D8B7 263-310): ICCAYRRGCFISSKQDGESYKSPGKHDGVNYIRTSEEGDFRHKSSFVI
The data set is described as follows: yeast two hybrid interaction of Grasp55 constructs with JAM-C. In kind it is binding, murine. The arrangement: key: Symbols “+++” and “−” indicates the growth of yeast on selective media as shown in the FIGURE 13; Symbols “+++” and “−” indicates the growth of yeast on selective media as shown in the FIGURE 13.
Text: as §1, §2

A further data set has as its target T3, JAM-B ΔPDZbm (Mus musculus, UniProt Q9JI59).
T3 construct: amino-acids 258 to 298 of murine JAM-B; expressed in transfected cells; host or cells: AH109 yeast strain
T3 sequence (Q9JI59 258-295 limits assumed): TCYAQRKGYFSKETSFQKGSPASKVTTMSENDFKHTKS
The data set is described as follows: yeast two hybrid interaction of Grasp55 constructs with JAM-B ΔPDZbm. The data set is classed as binding, murine. The arrangement: key: Symbols “+++” and “−” indicates the growth of yeast on selective media as shown in the FIGURE 13; Symbols “+++” and “−” indicates the growth of yeast on selective media as shown in the FIGURE 13.
Text: as §1, §2

The next data set addresses T4, JAM-A (Mus musculus, UniProt O88792, R268T).
T4 construct: amino-acids 260 to 299 of murine JAM-A; expressed in transfected cells; host or cells: AH109 yeast strain
T4 sequence (O88792 260-300 R268T): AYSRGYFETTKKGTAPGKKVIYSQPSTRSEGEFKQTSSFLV
The experiment in a line: yeast two hybrid interaction of Grasp55 constructs with JAM-A. The data set is classed as binding, murine. The arrangement: key: Symbols “+++” and “−” indicates the growth of yeast on selective media as shown in the FIGURE 13; Symbols “+++” and “−” indicates the growth of yeast on selective media as shown in the FIGURE 13.
Text: as §1, §2

A further data set deals with T5, JAM-B (Mus musculus, UniProt Q9JI59).
T5 construct: amino-acids 258 to 298 of murine JAM-B; expressed in transfected cells; host or cells: AH109 yeast strain
T5 sequence (Q9JI59 258-298): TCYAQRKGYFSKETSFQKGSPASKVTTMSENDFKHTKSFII
The data set is described as follows: yeast two hybrid interaction of Grasp55 constructs with JAM-B. The data set is classed as binding, murine. The arrangement: key: Symbols “+++” and “−” indicates the growth of yeast on selective media as shown in the FIGURE 13; Symbols “+++” and “−” indicates the growth of yeast on selective media as shown in the FIGURE 13.
Text: as §1, §2

Another data set addresses T6, JAM-C ΔPDZbm (Mus musculus, UniProt Q9D8B7).
T6 construct: amino-acids 263 to 310 of murine JAM-C; expressed in transfected cells; host or cells: AH109 yeast strain
T6 sequence (Q9D8B7 263-307 limits assumed): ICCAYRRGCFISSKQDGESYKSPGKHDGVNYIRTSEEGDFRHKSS
The experiment in a line: yeast two hybrid interaction of Grasp55 constructs with JAM-C ΔPDZbm. The data set is classed as binding, murine. The arrangement: key: Symbols “+++” and “−” indicates the growth of yeast on selective media as shown in the FIGURE 13; Symbols “+++” and “−” indicates the growth of yeast on selective media as shown in the FIGURE 13.
Text: as §1, §2

For the next data set, the target named is T7, ADAM17 (Mus musculus, UniProt Q9Z0F8, A775V/P752S).
T7 construct: expressed in transfected cells; host or cells: AH109 yeast strain
The experiment in a line: yeast two hybrid interaction of Grasp55 constructs with ADAM17 C-terminal sequence. The arrangement: key: Symbols “+++” and “−” indicates the growth of yeast on selective media as shown in the FIGURE 13; Symbols “+++” and “−” indicates the growth of yeast on selective media as shown in the FIGURE 13. The data set is classed as binding, murine.
Text: as §1, §2

A further data set has as its target T8, JAM-A ΔPDZbm (Mus musculus, UniProt O88792, R268T).
T8 construct: amino-acids 260 to 299 of murine JAM-A; expressed in transfected cells; host or cells: AH109 yeast strain
T8 sequence (O88792 260-297 R268T): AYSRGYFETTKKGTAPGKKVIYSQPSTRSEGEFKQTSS
The data set is described as follows: yeast two hybrid interaction of Grasp55 constructs with JAM-A ΔPDZbm. The arrangement: key: Symbols “+++” and “−” indicates the growth of yeast on selective media as shown in the FIGURE 13; Symbols “+++” and “−” indicates the growth of yeast on selective media as shown in the FIGURE 13. The data set is classed as binding, murine.
Text: as §1, §2

Data set [1] relates to B16F10 cells. The data set is described as follows: ELISA of soluble JAM-C in cell culture supernatant. In kind it is cell-based, mouse. Conditions: B16F10 control 0.27±0.02; mean±SEM. As for the experimental part: An ELISA was designed to determine the concentration of soluble JAM-C in cell culture supernatants. Ninety-six-well plates (Nalge Nunc International) were coated overnight at room temperature with rat anti-mouse JAM-C antibody H36 (home-made). Plates were washed and blocked with buffer containing PBS and 2% of bovine albumin for 2 hours. Cell culture supernatants from different cell conditions were incubated during 3 hours. Plates were washed, and polyclonal rabbit anti-JAM-C (501) was added for 1 hour at room temperature. After three washes, donkey anti-rabbit HRP antibody was put on. To reveal the final read out, the substrate of HRP, tetramethylbenzidine ([…]) is adjoined. The absorbance lecture (D.O at 450 nm) is carried out on a ELISA POLARstar reader.

Data set [2] has as its system B16F10 cells. The experiment in a line: wound healing assay (cell migration). The data set is classed as cell-based, mouse. The note with it: B16F10 stably transfected with shRNA; shctrl 249±5; Mean+/−SEM. The method, then: Transient transfections were performed on a 50% confluent monolayer of B16F10 cells with either 10 nM of siRNA or 5 μg of shRNA against luciferase used as a control or shRNA against GRASP55 in Lipofectamine RNAimax (Invitrogen). Transfection efficiency was monitored at 24 h by qRT-PCR and Western blots for the expression of GRASP55 transcript or protein. For selection of stable transfectants, cells were grown in DMEM containing 10 μg/ml of puromycine (Sigma Aldrich) starting 48 h after transfection.
For in vitro wound healing assays, 80% confluent monolayers of wild-type B16F10 cells or B16F10 cells transfected with various siRNA or shRNA were grown in both chambers of Ibidi culture inserts with defined cell free gaps. Cells were subjected to serum starvation for 24 h, before wounds were created by removing Ibidi culture inserts that define cell gaps of 400 μm. The wound healing was carried out for 8 h in complete DMEM medium and was recorded at various times after wounding. Analysis of wound closure was performed using Metamorph software and is expressed as mean speed per minute.

T7 sequence (Q9Z0F8 693-827 P752S/A775V): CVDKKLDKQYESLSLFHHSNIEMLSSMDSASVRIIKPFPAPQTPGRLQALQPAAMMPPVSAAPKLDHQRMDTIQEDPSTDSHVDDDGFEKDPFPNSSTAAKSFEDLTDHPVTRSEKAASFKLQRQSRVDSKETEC

With “PDZI: Grasp55 construct, residues 1 to 79”, in the data set with ADAM10, the “interaction with ADAM10 (yeast growth on selective media)” value is recorded as “−”. Also, in the data set with JAM-C, the “interaction with JAM-C (yeast growth on selective media)” value is recorded as “−”. Further, the “interaction with JAM-B ΔPDZbm (yeast growth on selective media)” value with JAM-B ΔPDZbm is on record as “−”. In the data set with JAM-A, the “interaction with JAM-A (yeast growth on selective media)” value is given as “−”. Further, in the data set with JAM-B, the “interaction with JAM-B (yeast growth on selective media)” value is “−”. Moreover, in the data set with JAM-C ΔPDZbm, the “interaction with JAM-C ΔPDZbm (yeast growth on selective media)” value is reported as “−”. In addition, in the data set with ADAM17, the “interaction with ADAM17 (yeast growth on selective media)” value is given as “−”. The “interaction with JAM-A ΔPDZbm (yeast growth on selective media)” value with JAM-A ΔPDZbm was “−”.
As for “PDZII: Grasp55 construct, residues 80 to 160”, the “interaction with ADAM10 (yeast growth on selective media)” value with ADAM10 was “+++”. Also, the “interaction with JAM-C (yeast growth on selective media)” value with JAM-C is listed as “−”. Moreover, the “interaction with JAM-B ΔPDZbm (yeast growth on selective media)” value with JAM-B ΔPDZbm is on record as “−”. The “interaction with JAM-A (yeast growth on selective media)” value in the data set with JAM-A is listed as “−”. In addition, in the data set with JAM-B, the “interaction with JAM-B (yeast growth on selective media)” value was “−”. The “interaction with JAM-C ΔPDZbm (yeast growth on selective media)” value in the data set with JAM-C ΔPDZbm is reported as “−”. For the same substance, in the data set with ADAM17, the “interaction with ADAM17 (yeast growth on selective media)” value was “+++”. For the same substance, the “interaction with JAM-A ΔPDZbm (yeast growth on selective media)” value with JAM-A ΔPDZbm is on record as “−”.
For the substance “PDZI + II: Grasp55 construct, residues 1 to 160”, the “interaction with ADAM10 (yeast growth on selective media)” value with ADAM10 was “−”. Moreover, the “interaction with JAM-C (yeast growth on selective media)” value with JAM-C is recorded as “+++”. Further, the “interaction with JAM-B ΔPDZbm (yeast growth on selective media)” value with JAM-B ΔPDZbm is “−”. Besides, the “interaction with JAM-A (yeast growth on selective media)” value in the data set with JAM-A is listed as “+++”. Further, the “interaction with JAM-B (yeast growth on selective media)” value with JAM-B is recorded as “+++”. In addition, the “interaction with JAM-C ΔPDZbm (yeast growth on selective media)” value with JAM-C ΔPDZbm was “−”. The “interaction with ADAM17 (yeast growth on selective media)” value in the data set with ADAM17 is on record as “−”. Further, the “interaction with JAM-A ΔPDZbm (yeast growth on selective media)” value in the data set with JAM-A ΔPDZbm is on record as “−”.
In the case of “shGRASP55: shRNA against mouse GRASP55 in pSUPER.retro, target SEQ ID NO: 11, strands SEQ ID Nos. 12 and 13 (chain 1 CGGUUCAAGAUUAAAUAAATT; chain 2 AATTTATTTAATCTTGAACCG)”, in the data set on B16F10 cells [1], the “quantity of soluble JAM-C in cell culture supernatant” value is 0.21 ± 0.01 ng/mL. Further, the mean velocity with B16F10 cells [2] came out at 184 ± 6 nm/min.

Source of the values: patent US9107936B2, “Antagonists of GRASP55 for use as a medicament” (Institut National de la Sante et de la Recherche Medicale …, priority 2012, dated 2015).
